Patent US20080131423A1 (US Dept. of Health and Human Services, published 2008)

Experiments:
BSA = BSA (UniProt P02769 25-607); assay: phage ELISA, immobilized antigen (data not shown)
[1] = target: T1, human TREM-like transcript-1 (TLT-1) (human, UniProt Q86YW5 16-311); assay: flow cytometry, purified scFv on TLT-1 transfected cells
T1 construct: whole, on cells; bands of 35 and 25 kDa; also called hTLT-1; TLT-1 on (HEK)293T transfected cells
T1 sequence (looked up): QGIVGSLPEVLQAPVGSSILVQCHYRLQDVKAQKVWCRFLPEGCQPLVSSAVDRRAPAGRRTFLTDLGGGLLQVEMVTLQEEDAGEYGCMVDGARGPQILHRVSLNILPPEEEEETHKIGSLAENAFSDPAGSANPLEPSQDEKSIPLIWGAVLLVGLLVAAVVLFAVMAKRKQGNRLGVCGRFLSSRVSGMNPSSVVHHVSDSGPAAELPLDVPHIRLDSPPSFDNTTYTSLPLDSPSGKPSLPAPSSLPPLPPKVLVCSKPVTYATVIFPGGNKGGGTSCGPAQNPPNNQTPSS
Procedure: For flow cytometric analysis with TLT-1-transfected cells, phage-containing supernatants were prepared from individual colonies as previously described (14). (HEK)293T-TLT-1 transfected cells (2×10⁵ cells) were washed with PBS/1% BSA and incubated with phages (2×10¹⁰ TU) or purified scFv (1 μg/ml). After 1 hr of incubation at 4° C., cells were washed twice with PBS/1% BSA. Phage binding was detected by incubation with mouse anti-M13 monoclonal antibody (Amersham Bioscience, Piscataway, N.J.), followed by incubation with phycoerithrin (PE)-conjugated anti-mouse antibody (Jackson Immunoresearch, West Grove, Pa.). To analyze scFv binding to human platelets, platelets were incubated with 1 μg of purified scFv for 1 hour at 4° C. and washed three times with PBS containing 0.5% sodium azide and 0.5% BSA. ScFv binding was detected using a FITC-conjugated anti-c-myc antibody (Sigma, St Louis, Mo.). TLT-1 expression was detected with a commercial anti-human TLT-1 pAb (R&D Systems, MN) as previously described (10).

BSA, sequence (P02769 25-607 limits assumed): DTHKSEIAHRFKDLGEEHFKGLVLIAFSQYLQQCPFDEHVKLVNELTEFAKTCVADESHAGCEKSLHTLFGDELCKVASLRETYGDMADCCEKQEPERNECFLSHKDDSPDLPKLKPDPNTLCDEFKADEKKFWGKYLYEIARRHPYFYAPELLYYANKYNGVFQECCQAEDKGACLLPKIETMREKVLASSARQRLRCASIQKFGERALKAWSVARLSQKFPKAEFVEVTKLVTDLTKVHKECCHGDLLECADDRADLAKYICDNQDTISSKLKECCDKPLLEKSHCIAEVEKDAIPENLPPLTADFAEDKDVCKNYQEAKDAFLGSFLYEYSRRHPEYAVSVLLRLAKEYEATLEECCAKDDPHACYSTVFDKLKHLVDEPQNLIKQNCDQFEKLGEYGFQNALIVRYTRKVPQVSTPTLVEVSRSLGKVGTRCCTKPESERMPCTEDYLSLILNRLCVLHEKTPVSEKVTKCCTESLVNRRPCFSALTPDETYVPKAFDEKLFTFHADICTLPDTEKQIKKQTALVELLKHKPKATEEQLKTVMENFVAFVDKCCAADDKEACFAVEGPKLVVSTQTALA

Binder | binding result (BSA) | binding result [1]
scFv C10 (scFv, Human scFv from the Tomlinson I phage library; Soluble form made in E. coli HB2151 and purified on Protein L (28 kDa); also called clone C10) scFv: MAEVQLLESGGGLVQPGGSLRLSCAASGFTFSSYAMSWVRQAPGKGLEWVSGISSTGGATTYADSVKGRFTISRDNSKNTLYLQMNSLRAEDTAVYYCAKSTYDFDYWGQGTLVTVSSGGGGSGGGGSGGGGSTDIQMTQSPSSLSASVGDRVTITCRASQSISSYLNWYQQKPGKAPKLLIYGASTLQSGVPSRFSGSGSGTDFTLTISSLQPEDFATYYCQQNADAPTTFGQGTKVEIKRAAAHHHHHHGAAEQKLISEEDLNGAA | no binding | –
scFv B8 (scFv, Human scFv from the Tomlinson I phage library; Soluble form purified on Protein L; also called GenBank DQ375452) scFv: MAEVQLLESGGGLVQPGGSLRLSCAASGFTFSSYAMSWVRQAPGKGLEWVSNITASGYATAYADSVKGRFTISRDNSKNTLYLQMNSLRAEDTAVYYCAKTTATFDYWGQGTLVTVSSGGGGSGGGGSGGGGSTDIQMTQSPSSLSASVGDRVTITCRASQSISSYLNWYQQKPGKAPKLLIYDASNLQSGVPSRFSGSGSGTDFTLTISSLQPEDFATYYCQQDTASPSTFGQGTKVEIKRAAAHHHHHHGAAEQKLISEEDLNGAA | no binding | –
scFv A1 (scFv, Human scFv from the Tomlinson I phage library; Soluble form purified on Protein L; also called GenBank DQ375449) scFv: MAEVQLLESGGGLVQPGGSLRLSCAASGFTFSSYAMSWVRQAPGKGLEWVSGIGTTGYATAYADSVKGRFTISRDNSKNTLYLQMNSLRAEDTAVYYCAKGNSGFDYWGQGTLVTVSSGGGGSGGGGSGGGGSTDIQMTQSPSSLSASVGDRVTITCRASQSISSYLNWYQQKPGKAPKLLIYTASTLQSGVPSRFSGSGSGTDFTLTISSLQPEDFATYYCQQSSTDPGTFGQGTKVEIKRAAAHHHHHHGAAEQKLISEEDLNGAA | no binding | binds
scFv D1 (scFv, Human scFv from the Tomlinson I phage library; Soluble form purified on Protein L; also called GenBank DQ375454) scFv: MAEVQLLESGGGLVQPGGSLRLSCAASGFTFSSYAMSWVRQAPGKGLEWVSAIGTTGYATAYADSVKGRFTISRDNSKNTLYLQMNSLRAEDTAVYYCAKANSYFDYWGQGTLVTVSSGGGGSGGGGSGGGGSTDIQMTQSPSSLSASVGDRVTITCRASQSISSYLNWYQQKPGKAPKLLIYSASTLQSGVPSRFSGSGSGTDFTLTISSLQPEDFATYYCQQDSTSPDTFGQGTKVEIKRAAAHHHHHHGAAEQKLISEEDLNGAA | no binding | binds
scFv A8 (scFv, Human scFv from the Tomlinson I phage library; Soluble form purified on Protein L; also called GenBank DQ375451) scFv: MAEVQLLESGGGLVQPGGSLRLSCAASGFTFSSYAMSWVRQAPGKGLEWVSGIGTTGYSTAYADSVKGRFTISRDNSKNTLYLQMNSLRAEDTAVYYCAKTAYTFDYWGQGTLVTVSSGGGGSGGGGSGGGGSTDIQMTQSPSSLSASVGDRVTITCRASQSISSYLNWYQQKPGKAPKLLIYSASTLQSGVPSRFSGSGSGTDFTLTISSLQPEDFATYYCQQNSTYPATFGQGTKVEIKRAAAHHHHHHGAAEQKLISEEDLNGAA | no binding | binds
scFv A7 (scFv, Human scFv from the Tomlinson I phage library; Soluble form purified on Protein L; also called GenBank DQ375450) scFv: MAEVQLLESGGGLVQPGGSLRLSCAASGFTFSSYAMSWVRQAPGKGLEWVSAIGSYGSATAYADSVKGRFTISRDNSKNTLYLQMNSLRAEDTAVYYCAKNGYDFDYWGQGTLVTVSSGGGGSGGGGSGGGGSTDIQMTQSPSSLSASVGDRVTITCRASQSISSYLNWYQQKPGKAPKLLIYNASGLQSGVPSRFSGSGSGTDFTLTISSLQPEDFATYYCQQSAANPSTFGQGTKVEIKRAAAHHHHHHGAAEQKLISEEDLNGAA | no binding | binds
